According to patent US20220118063A1:

Target: FVIII (B region deleted), purchased from American Pharma Wholesale (human) (UniProt P00451)
Test: cell-based or functional assay

Chain of UniProt P00451 (P00451 other isoform, or with tags, fused parts or gaps, chain 1 of 2): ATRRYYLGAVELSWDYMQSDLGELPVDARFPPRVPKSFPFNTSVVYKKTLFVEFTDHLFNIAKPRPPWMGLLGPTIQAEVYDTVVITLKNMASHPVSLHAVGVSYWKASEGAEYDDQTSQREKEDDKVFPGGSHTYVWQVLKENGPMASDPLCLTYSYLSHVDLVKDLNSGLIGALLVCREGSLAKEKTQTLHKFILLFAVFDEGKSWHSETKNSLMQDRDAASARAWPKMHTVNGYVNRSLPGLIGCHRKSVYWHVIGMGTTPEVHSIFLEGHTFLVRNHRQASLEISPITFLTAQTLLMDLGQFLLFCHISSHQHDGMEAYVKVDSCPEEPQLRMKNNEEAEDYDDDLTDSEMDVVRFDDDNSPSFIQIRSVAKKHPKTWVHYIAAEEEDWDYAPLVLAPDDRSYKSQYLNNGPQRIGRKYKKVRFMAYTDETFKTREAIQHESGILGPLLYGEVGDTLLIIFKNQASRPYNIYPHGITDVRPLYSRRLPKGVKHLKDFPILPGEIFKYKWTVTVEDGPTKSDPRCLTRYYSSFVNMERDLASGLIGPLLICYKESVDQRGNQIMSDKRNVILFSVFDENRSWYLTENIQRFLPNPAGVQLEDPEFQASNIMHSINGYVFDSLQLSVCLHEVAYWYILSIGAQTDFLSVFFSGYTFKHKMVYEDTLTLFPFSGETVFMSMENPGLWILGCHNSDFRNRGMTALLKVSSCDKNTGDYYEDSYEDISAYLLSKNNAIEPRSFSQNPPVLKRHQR
Chain of UniProt P00451 (P00451 1668-2351, stated change not applied, chain 2 of 2): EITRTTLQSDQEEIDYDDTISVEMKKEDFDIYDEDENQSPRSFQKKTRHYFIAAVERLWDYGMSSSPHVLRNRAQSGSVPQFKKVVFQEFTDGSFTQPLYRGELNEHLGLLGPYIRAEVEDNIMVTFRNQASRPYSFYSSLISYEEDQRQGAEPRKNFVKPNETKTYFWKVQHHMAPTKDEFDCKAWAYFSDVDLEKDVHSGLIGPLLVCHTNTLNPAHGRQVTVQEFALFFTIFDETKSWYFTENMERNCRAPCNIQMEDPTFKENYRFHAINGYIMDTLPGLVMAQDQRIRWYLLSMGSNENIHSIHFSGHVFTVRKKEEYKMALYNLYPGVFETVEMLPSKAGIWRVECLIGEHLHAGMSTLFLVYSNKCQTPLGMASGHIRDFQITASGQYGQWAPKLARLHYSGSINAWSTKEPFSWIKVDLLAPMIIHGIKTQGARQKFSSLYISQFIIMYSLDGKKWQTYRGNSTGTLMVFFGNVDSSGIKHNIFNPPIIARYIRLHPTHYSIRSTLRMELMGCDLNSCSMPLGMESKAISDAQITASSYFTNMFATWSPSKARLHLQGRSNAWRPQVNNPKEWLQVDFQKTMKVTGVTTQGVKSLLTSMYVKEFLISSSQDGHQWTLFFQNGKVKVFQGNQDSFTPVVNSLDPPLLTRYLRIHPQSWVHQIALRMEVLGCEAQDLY

In the case of “CM110 (expressed from plasmid pCM110RMHM: D′D3 region of human von Willebrand Factor with cys1099 and cys1142 changed to alanine, 56 amino acid glycine serine rich linker, full length human albumin, no His tag) (from UniProt P04275 764-1247)”, the fold decrease in specific activity of CM211 in the APTT against the Coatest assay is reported as 6.5 fold.
